Assay results from patent publication US20260001928A1 (CORTERIA PHARMACEUTICALS, priority 2022, published 2026).
*1 amine or outer side, *2 acyl side, *3 side chain or, on linkers, in order; H or OH if unused. Where no end group is shown, it is not given here. Side-chain parts run from the residue outwards. [ ]: non-standard residue; d: D form. The star is where a group is joined. C18 diacid = O=C(O)CCCCCCCCCCCCCCCCC(=O)*; γGlu = O=C(O)[C@H](CCC(=O)[*:2])N[*:1]; NMeI = CC[C@H](C)[C@H](NC)C(=O)O; Abu = CC[C@H](N)C(=O)O; Dap = NC[C@H](N)C(=O)O; AEEA = NCCOCCOCC(=O)O

T1: CRF1R receptor (UniProt P34998 24-415, limits assumed)
T1 sequence (looked up): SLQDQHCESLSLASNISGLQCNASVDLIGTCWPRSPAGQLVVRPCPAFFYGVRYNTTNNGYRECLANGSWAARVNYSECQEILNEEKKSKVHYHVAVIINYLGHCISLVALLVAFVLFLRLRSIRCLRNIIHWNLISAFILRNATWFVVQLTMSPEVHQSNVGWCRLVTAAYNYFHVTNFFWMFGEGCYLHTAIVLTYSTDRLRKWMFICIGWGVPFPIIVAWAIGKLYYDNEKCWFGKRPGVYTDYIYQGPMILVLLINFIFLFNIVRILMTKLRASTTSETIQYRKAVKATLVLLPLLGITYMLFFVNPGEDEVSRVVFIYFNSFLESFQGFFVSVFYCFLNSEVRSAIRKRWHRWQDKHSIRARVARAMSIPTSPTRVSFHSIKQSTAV

B1: SEQ ID NO 140 (peptide)
peptide: [NMeI]VLSLD[dV]PIKLK([γGlu-C18 diacid])KILLEQEKQKKQREQAETN[Dap]QILAQV-NH2
modifications: N-terminus assumed
SMILES: CC[C@H](C)[C@H](NC)C(=O)N[C@H](C(=O)N[C@@H](CC(C)C)C(=O)N[C@@H](CO)C(=O)N[C@@H](CC(C)C)C(=O)N[C@@H](CC(=O)O)C(=O)N[C@@H](C(=O)N1CCC[C@H]1C(=O)N[C@H](C(=O)N[C@@H](CCCCN)C(=O)N[C@@H](CC(C)C)C(=O)N[C@@H](CCCCNC(=O)CC[C@H](NC(=O)CCCCCCCCCCCCCCCCC(=O)O)C(=O)O)C(=O)N[C@@H](CCCCN)C(=O)N[C@H](C(=O)N[C@@H](CC(C)C)C(=O)N[C@@H](CC(C)C)C(=O)N[C@@H](CCC(=O)O)C(=O)N[C@@H](CCC(N)=O)C(=O)N[C@@H](CCC(=O)O)C(=O)N[C@@H](CCCCN)C(=O)N[C@@H](CCC(N)=O)C(=O)N[C@@H](CCCCN)C(=O)N[C@@H](CCCCN)C(=O)N[C@@H](CCC(N)=O)C(=O)N[C@@H](CCCNC(=N)N)C(=O)N[C@@H](CCC(=O)O)C(=O)N[C@@H](CCC(N)=O)C(=O)N[C@@H](C)C(=O)N[C@@H](CCC(=O)O)C(=O)N[C@H](C(=O)N[C@@H](CC(N)=O)C(=O)N[C@@H](CN)C(=O)N[C@@H](CCC(N)=O)C(=O)N[C@H](C(=O)N[C@@H](CC(C)C)C(=O)N[C@@H](C)C(=O)N[C@@H](CCC(N)=O)C(=O)N[C@H](C(N)=O)C(C)C)[C@@H](C)CC)[C@@H](C)O)[C@@H](C)CC)[C@@H](C)CC)C(C)C)C(C)C
B2: SEQ ID NO 115 (peptide)
peptide: [NMeI]VLSLD[dV]PIKLK([AEEA-AEEA-γGlu-C18 diacid])KILLEQEKQKKQREQAETN[Dap]QILAQV-NH2
modifications: N-terminus assumed
SMILES: CC[C@H](C)[C@H](NC)C(=O)N[C@H](C(=O)N[C@@H](CC(C)C)C(=O)N[C@@H](CO)C(=O)N[C@@H](CC(C)C)C(=O)N[C@@H](CC(=O)O)C(=O)N[C@@H](C(=O)N1CCC[C@H]1C(=O)N[C@H](C(=O)N[C@@H](CCCCN)C(=O)N[C@@H](CC(C)C)C(=O)N[C@@H](CCCCNC(=O)COCCOCCNC(=O)COCCOCCNC(=O)CC[C@H](NC(=O)CCCCCCCCCCCCCCCCC(=O)O)C(=O)O)C(=O)N[C@@H](CCCCN)C(=O)N[C@H](C(=O)N[C@@H](CC(C)C)C(=O)N[C@@H](CC(C)C)C(=O)N[C@@H](CCC(=O)O)C(=O)N[C@@H](CCC(N)=O)C(=O)N[C@@H](CCC(=O)O)C(=O)N[C@@H](CCCCN)C(=O)N[C@@H](CCC(N)=O)C(=O)N[C@@H](CCCCN)C(=O)N[C@@H](CCCCN)C(=O)N[C@@H](CCC(N)=O)C(=O)N[C@@H](CCCNC(=N)N)C(=O)N[C@@H](CCC(=O)O)C(=O)N[C@@H](CCC(N)=O)C(=O)N[C@@H](C)C(=O)N[C@@H](CCC(=O)O)C(=O)N[C@H](C(=O)N[C@@H](CC(N)=O)C(=O)N[C@@H](CN)C(=O)N[C@@H](CCC(N)=O)C(=O)N[C@H](C(=O)N[C@@H](CC(C)C)C(=O)N[C@@H](C)C(=O)N[C@@H](CCC(N)=O)C(=O)N[C@H](C(N)=O)C(C)C)[C@@H](C)CC)[C@@H](C)O)[C@@H](C)CC)[C@@H](C)CC)C(C)C)C(C)C
B3: SEQ ID NO 130 (peptide)
peptide: Ac-IVLSLD[dV]PIKLK([γGlu-C18 diacid])KILLEQEKQKKQREQAETNEQILAQV-NH2
SMILES: CC[C@H](C)[C@H](NC(C)=O)C(=O)N[C@H](C(=O)N[C@@H](CC(C)C)C(=O)N[C@@H](CO)C(=O)N[C@@H](CC(C)C)C(=O)N[C@@H](CC(=O)O)C(=O)N[C@@H](C(=O)N1CCC[C@H]1C(=O)N[C@H](C(=O)N[C@@H](CCCCN)C(=O)N[C@@H](CC(C)C)C(=O)N[C@@H](CCCCNC(=O)CC[C@H](NC(=O)CCCCCCCCCCCCCCCCC(=O)O)C(=O)O)C(=O)N[C@@H](CCCCN)C(=O)N[C@H](C(=O)N[C@@H](CC(C)C)C(=O)N[C@@H](CC(C)C)C(=O)N[C@@H](CCC(=O)O)C(=O)N[C@@H](CCC(N)=O)C(=O)N[C@@H](CCC(=O)O)C(=O)N[C@@H](CCCCN)C(=O)N[C@@H](CCC(N)=O)C(=O)N[C@@H](CCCCN)C(=O)N[C@@H](CCCCN)C(=O)N[C@@H](CCC(N)=O)C(=O)N[C@@H](CCCNC(=N)N)C(=O)N[C@@H](CCC(=O)O)C(=O)N[C@@H](CCC(N)=O)C(=O)N[C@@H](C)C(=O)N[C@@H](CCC(=O)O)C(=O)N[C@H](C(=O)N[C@@H](CC(N)=O)C(=O)N[C@@H](CCC(=O)O)C(=O)N[C@@H](CCC(N)=O)C(=O)N[C@H](C(=O)N[C@@H](CC(C)C)C(=O)N[C@@H](C)C(=O)N[C@@H](CCC(N)=O)C(=O)N[C@H](C(N)=O)C(C)C)[C@@H](C)CC)[C@@H](C)O)[C@@H](C)CC)[C@@H](C)CC)C(C)C)C(C)C
B4: SEQ ID NO 114 (peptide)
peptide: [NMeI]VLSLD[dV]PIKLK([AEEA-AEEA-γGlu-C18 diacid])KILLEQEKQKKQREQAETN[Abu]QILAQV-NH2
modifications: N-terminus assumed
SMILES: CC[C@H](NC(=O)[C@H](CC(N)=O)NC(=O)[C@@H](NC(=O)[C@H](CCC(=O)O)NC(=O)[C@H](C)NC(=O)[C@H](CCC(N)=O)NC(=O)[C@H](CCC(=O)O)NC(=O)[C@H](CCCNC(=N)N)NC(=O)[C@H](CCC(N)=O)NC(=O)[C@H](CCCCN)NC(=O)[C@H](CCCCN)NC(=O)[C@H](CCC(N)=O)NC(=O)[C@H](CCCCN)NC(=O)[C@H](CCC(=O)O)NC(=O)[C@H](CCC(N)=O)NC(=O)[C@H](CCC(=O)O)NC(=O)[C@H](CC(C)C)NC(=O)[C@H](CC(C)C)NC(=O)[C@@H](NC(=O)[C@H](CCCCN)NC(=O)[C@H](CCCCNC(=O)COCCOCCNC(=O)COCCOCCNC(=O)CC[C@H](NC(=O)CCCCCCCCCCCCCCCCC(=O)O)C(=O)O)NC(=O)[C@H](CC(C)C)NC(=O)[C@H](CCCCN)NC(=O)[C@@H](NC(=O)[C@@H]1CCCN1C(=O)[C@H](NC(=O)[C@H](CC(=O)O)NC(=O)[C@H](CC(C)C)NC(=O)[C@H](CO)NC(=O)[C@H](CC(C)C)NC(=O)[C@@H](NC(=O)[C@@H](NC)[C@@H](C)CC)C(C)C)C(C)C)[C@@H](C)CC)[C@@H](C)CC)[C@@H](C)O)C(=O)N[C@@H](CCC(N)=O)C(=O)N[C@H](C(=O)N[C@@H](CC(C)C)C(=O)N[C@@H](C)C(=O)N[C@@H](CCC(N)=O)C(=O)N[C@H](C(N)=O)C(C)C)[C@@H](C)CC

These binders were tested against human corticotropin-releasing factor 2a (CRF2a receptor) (human), Q13324 (assay: cell-based or functional assay).
human corticotropin-releasing factor 2a (CRF2a receptor) (human), Q13324, sequence (Q13324 20-411): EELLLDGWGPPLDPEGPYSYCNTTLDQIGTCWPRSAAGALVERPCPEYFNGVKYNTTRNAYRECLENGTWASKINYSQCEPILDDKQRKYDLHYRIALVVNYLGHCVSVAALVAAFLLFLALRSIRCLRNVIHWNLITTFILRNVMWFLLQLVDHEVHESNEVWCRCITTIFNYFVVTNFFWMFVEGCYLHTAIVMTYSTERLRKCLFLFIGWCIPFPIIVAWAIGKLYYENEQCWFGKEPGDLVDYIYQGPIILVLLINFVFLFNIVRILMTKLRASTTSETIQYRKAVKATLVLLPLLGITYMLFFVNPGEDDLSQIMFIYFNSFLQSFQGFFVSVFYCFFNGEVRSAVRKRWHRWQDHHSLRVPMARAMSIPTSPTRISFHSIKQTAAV
In the case of B1, the EC50 [nM] (cAMP) is reported as 0.17 nM. Binder B2 has an EC50 [nM] (cAMP) of 0.76 nM. Work on B3 yielded an EC50 [nM] (cAMP) of 0.08 nM. B4 gave an EC50 [nM] (cAMP) of 0.18 nM.

These binders were tested against T1, CRF1R receptor (assay: cell-based or functional assay).
In the case of B1, the “Emax (% I)” value is reported as 14%. For B2, the “Emax (% I)” value was 4%. In the case of B3, the “Emax (% I)” value is reported as 4%. With B4 the “Emax (% I)” value was 6%.
